The text below walks through data of patent US20240209112A1 (GENOME, published 2024).

For experiment [1], the target named is T1, Human BCAM (amine-coupled to AR2G biosensors) (human, UniProt P50895 32-547, limits assumed).
T1 construct: also called human BCAM protein
T1 sequence (looked up): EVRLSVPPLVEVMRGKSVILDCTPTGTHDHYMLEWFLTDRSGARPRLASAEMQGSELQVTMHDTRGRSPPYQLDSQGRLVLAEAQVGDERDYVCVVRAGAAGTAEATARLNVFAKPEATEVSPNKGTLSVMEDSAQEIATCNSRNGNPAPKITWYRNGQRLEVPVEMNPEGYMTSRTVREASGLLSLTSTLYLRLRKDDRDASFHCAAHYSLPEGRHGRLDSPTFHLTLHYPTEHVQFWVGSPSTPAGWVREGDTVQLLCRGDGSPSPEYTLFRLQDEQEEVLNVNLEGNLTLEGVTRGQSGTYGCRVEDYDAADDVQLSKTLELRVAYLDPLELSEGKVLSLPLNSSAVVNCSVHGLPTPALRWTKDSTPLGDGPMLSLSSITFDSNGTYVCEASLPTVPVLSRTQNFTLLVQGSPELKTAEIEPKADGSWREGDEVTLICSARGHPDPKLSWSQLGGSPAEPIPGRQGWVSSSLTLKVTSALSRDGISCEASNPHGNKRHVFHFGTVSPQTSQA
As to the kind of experiment: BLI (Octet QK), human BCAM amine-coupled to AR2G sensor, antibody in solution, 1:1 fit. As to the method:
The binding ability confirmation test according to BLI for the three antibodies prepared in Example 1 was performed using Octet (Octet QK, ForteBio).
Specifically, in order to bind human BCAM (antigen) using amine coupling, Reactive 2nd Generation (AR2G) biosensors (Cat. No. 18-5094, Sartorius) were mounted and activated using the AE2G reagent kit (Cat. No. 18-5095). Thereafter, the biosensors were put in an antigen solution for 10 minutes to bind the human BCAM, and put in an ethanolamine solution for 5 minutes to terminate the reaction. The biosensors to which the human BCAM was bound was put into a buffer containing the prepared three different antibodies 111a, 111b, and 111c, and the binding reaction was monitored for 5 minutes, followed by a dissociation reaction for 15 minutes. At this time, antibody solutions were sequentially diluted, and association and dissociation rates depending on different concentrations were verified. The association (Ka) and dissociation (Kd) rate constants were determined by fitting them to a 1:1 binding model using a curve-fitting software. The binding dissociation equilibrium constant (KD) was calculated with KD=Kd/Ka.
For orientation: In BLI a coated tip is dipped into the sample, and binding shifts an interference pattern.

In experiment [2] the target is T2, BCAM protein (antigenic protein coated in the ELISA) (UniProt P50895 32-547, limits assumed).
T2 construct: also called antigen protein; Lu
T2 sequence (looked up): T1 sequence (looked up)
Put plainly: ELISA, BCAM coated at 15 nM, antibody at 1 nM. The procedure: (§1) In order to confirm the binding ability of each antibody prepared in Example 1 to an antigen protein (BCAM protein), an ELISA (Enzyme-Linked Immunosorbent Assay) test was performed. The antigenic protein was diluted in PBS buffer and prepared to a concentration of 15 nM. Each well of a 96-well half plate (Costar, Cat. No. 3690) was coated with 50 μL of the antigenic protein, followed by overnight incubation at 4° C. Next day, after all the solutions in the plate were removed, a blocking buffer (3% BSA in PBS) was added to each well, followed by incubation at 37° C. for 1 hour. Three antibody samples (111a, 111b, and 111c) were sequentially diluted in the blocking buffer from 1 μM to 7 points (1 pM) at a dilution ratio of 10-fold. After the blocking process was completed, the buffer was removed from the well, and the antibodies prepared by the dilution was added to each well by 50 μL, followed by incubation at 37° C. for 2 hours. The incubated well was washed with 0.1% PBST (0.1% Tween 20 in PBS) and were treated with HRP-conjugated anti-human IgG Fc antibodies (ThermoFisher Scientific, Cat. No.: 31423) which were secondary antibodies for antibody detection at 37° C. for 1 hour, and then washed again with 0.1% PBST. ABTS solution (ThermoFisher Scientific, Cat. No.: 00-2024) was added to each well by 50 μL for coloring, and reacted at room temperature for 10 minutes, and an optical density at 405 nm (OD₄₀₅) was measured. In order to compare the degree of avidity of each antibody to antigens, the EC50 concentration of each antibody was calculated, and the results are shown in Table 4.
In general terms: An ELISA detects its analyte on a solid surface through an enzyme-linked reagent.

The target of experiment [3] is T2, BCAM protein (antigenic protein coated …). Put plainly: ELISA, BCAM coated at 15 nM, antibody at 1000 nM. The procedure:
as §1

The target is the same in experiment [4]. Put plainly: ELISA, BCAM coated at 15 nM, antibody at 10 nM. The procedure:
as §1

Experiment [5] shares this target. As to the kind of experiment: ELISA, BCAM coated at 15 nM, antibody at 0.01 nM. The procedure: as §1
For experiment [6] the target is unchanged. As to the kind of experiment: ELISA, BCAM coated at 15 nM, antibody at 0.1 nM. As to the method: as §1
The target is the same in experiment [7]. Put plainly: ELISA, BCAM coated at 15 nM, antibody at 100 nM. As to the method:
as §1

For experiment [8] the target is unchanged. As to the kind of experiment: ELISA on coated BCAM protein. The procedure: as §1
Experiment [9] concerns the target T3, Human BCAM expressed on transfected HEK293FT cells (human, UniProt P50895 32-628).
T3 construct: whole, on cells; also called Human BCAM antigens; 293FT/BCAM1
T3 sequence (looked up): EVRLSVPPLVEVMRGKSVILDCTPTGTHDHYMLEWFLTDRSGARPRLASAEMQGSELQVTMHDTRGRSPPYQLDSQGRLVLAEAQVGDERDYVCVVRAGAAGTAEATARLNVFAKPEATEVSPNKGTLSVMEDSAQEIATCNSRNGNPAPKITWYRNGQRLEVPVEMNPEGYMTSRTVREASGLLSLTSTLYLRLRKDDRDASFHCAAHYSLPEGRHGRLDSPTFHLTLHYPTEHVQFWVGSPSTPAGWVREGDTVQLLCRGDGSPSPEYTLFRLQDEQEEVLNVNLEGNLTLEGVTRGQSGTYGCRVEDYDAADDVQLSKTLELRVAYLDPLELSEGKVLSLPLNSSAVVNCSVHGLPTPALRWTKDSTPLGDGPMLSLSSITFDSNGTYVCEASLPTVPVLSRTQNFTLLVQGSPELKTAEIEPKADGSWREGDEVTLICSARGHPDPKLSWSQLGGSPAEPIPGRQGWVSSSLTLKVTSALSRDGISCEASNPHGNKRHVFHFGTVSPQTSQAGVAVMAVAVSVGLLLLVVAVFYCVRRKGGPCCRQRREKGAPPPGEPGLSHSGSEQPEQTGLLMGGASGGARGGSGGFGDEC
As to the kind of experiment: flow cytometry on HEK293FT cells transfected with human BCAM. The procedure: Human BCAM antigens were expressed in HEK293FT cells via transfection (using 293FT/BCAM1 plasmid). The transfected HEK293FT cells (1×10⁵ cells) were suspended in PBS and 50 μL thereof was seeded on a plate.
Separately, each of the anti-BCAM antibodies of Example 1 and isotype control (human IgG) antibodies was initially diluted at a concentration of 45 μg/mL using PBS and diluted 12 times through 3-fold dilution, and the plate was incubated at an appropriate time and at an appropriate temperature. As a negative control, PBS buffer was used.
Then, after washing, AlexaFluor® 647 AffiniPure Goat Anti-Human IgG (H+L) (min X Bov, Hrs, Ms Sr Prot) (Jackson) (1 μg/mL) was added thereto and the plate was incubated again, washed again with PBS, and the binding degree of antigen-antibody was analyzed with a flow cytometer.
For orientation: A flow cytometer gives signals particle by particle.

For experiment [10], the target named is T2, BCAM protein (antigenic protein coated …). As to the kind of experiment: ELISA, BCAM coated at 15 nM, antibody at 0.001 nM. As to the method: as §1

B1: anti-BCAM human IgG4 antibody 111c (antibody, V domains shown)
VH: EVQLVQSGGGLVKPGGSLRLSCAASGFTFSDYYMSWIRQAPGKGLEWVSYTSSSGSTIYYADSVKGRFTISRDNAKNSLYLQMNSLRAEDTAVYYCARDITAFDIWGQGTMVTVSS
VL: LPVLTQPPSASGSPGQSVTISCTGTSSDVGGYNYVSWYQQHPGKAPKLMIYEVNKRPSGVPDRFSGSKSGNTASLTVSGLQAEDEADYYCCSYAGSNNYVFGTGTKVTVL
What is called Kd is the equilibrium constant for the complex coming apart. Read a low Kd as tighter binding. Usually koff stands for a measure of how fast the partners let go of each other. Higher therefore signals a short-lived complex. The term kon denotes a measure of how fast the partners come together. Low values mean slow association, high ones fast association. A word on the EC50: it is the concentration that produces a half-maximal response. A higher EC50 goes with a less potent agent. B1 showed a dissociation constant (Kd) in experiment [1] of 0.084 nM. In addition, the koff in [1] is 0.000255 s⁻¹. In experiment [1], this molecule had a kon of 3.04e+06 M⁻¹ s⁻¹. Also, the OD405 is 0.5 OD405 in experiment [2]; 2.34 OD405 in experiment [3]; 1.41 OD405 in [4]; 0.25 OD405 in experiment [5]; 0.31 OD405 in experiment [6]; 2.26 OD405 in experiment [7]. The OD405 in experiment [10] worked out at 0.11 OD405. The EC50 in experiment [8] worked out at 7.7 nM; in [9] it was 0.0427 mg/L.

B2: anti-BCAM human IgG4 antibody 111a (antibody, V domains shown)
VH: QVTLKESGPGLVKPSGTLSLTCAVSGGSISSSNWWSWVRQPPGKGLEWIGEIYHSGSTNYNPSLKSRVTISVDKSKNQFSLKLSSVTAADTAVYYCARAYTVTTTYFDYWGQGTLVTVSS
VL: NIQMTQSPSTLSASVGDRVTITCRASQSMSTWLAWYQQKPGRAPKLLIYKASALETGVPSRFSGSGSGTQFTLTISSLQPDDFATYYCQQYDEFASFGQGTKVEIK
notes: Derived from a human scFv phage library; also called 11la
As for B2, the Kd in experiment [1] is 2.47 nM. In experiment [1], this molecule displayed a koff of 0.000397 s⁻¹. In addition, in [1], the kon was 161000 M⁻¹ s⁻¹. Moreover, the OD405 came out at 0.46 OD405 in experiment [2]; 2.32 OD405 in experiment [3]; 1.09 OD405 in experiment [4]; 0.11 OD405 in experiment [5]; 0.18 OD405 in experiment [6]; 2.14 OD405 in [7]. Moreover, the OD405 in experiment [10] was found to be 0.1 OD405. In addition, the figures for the EC50 in experiment [8] and in experiment [9] were 12.5 nM and 0.189 mg/L, respectively.

B3: anti-BCAM human IgG4 antibody 111b (antibody, V domains shown)
VH: EVQLVQSGAEVKKPGASVKVSCKASGYTFTSYYMHWVRQAPGQGLEWMGIINPSGGSTSYAQKFQGRVTMTRDTSTSTVYMELSSLRSEDTAVYYCARDGKGWDYYGSGSPLQYWGQGTLVTVSS
VL: LPVLTQPPSVSKGLRQTATLTCTGNSNNVGNQGAAWLQQHQGHPPKLLSYRNNDRPSGISERLSASRSGNTASLTITGLQPEDEADYYCSAWDSSLSAWVFGGGTKLTVL
In turn, B3 displayed a Kd in [1] of 13.1 nM. In addition, the koff in experiment [1] was found to be 0.000306 s⁻¹. This molecule had a kon in experiment [1] of 23400 M⁻¹ s⁻¹. The OD405 in [2] stood at 0.33 OD405; in experiment [3] it was 0.76 OD405; in [4], 0.43 OD405; in experiment [5], 0.15 OD405; in [6], 0.35 OD405; in [7] it was 0.46 OD405. The OD405 in [10] came out at 0.1 OD405. In addition, the 50% effective concentration (EC50) in [8] came out at 127 nM; in [9] it was 0.171 mg/L.
